Values quoted from earlier work, collected in US20120082669A1, “HUMAN EPO MIMETIC HINGE CORE MIMETIBODIES, COMPOSITIONS, METHODS AND USES FOR PREVENTING OR TREATING GLUCOSE INTOLERANCE RELATED CONDITIONS OR RENAL DISEASE ASSOCIATED ANEMIA” (priority 2006, published 2012).

Experiments:
[1] = cited from earlier work
[2] = tested on: patients with end-stage renal disease; settings: patients with end-stage renal disease treated with EPO; cited from earlier work
[3] = target: T1, EPO receptor (Homo sapiens, UniProt P19235); settings: relative to HuEPO; cited from earlier work
T1 sequence (P19235 25-508): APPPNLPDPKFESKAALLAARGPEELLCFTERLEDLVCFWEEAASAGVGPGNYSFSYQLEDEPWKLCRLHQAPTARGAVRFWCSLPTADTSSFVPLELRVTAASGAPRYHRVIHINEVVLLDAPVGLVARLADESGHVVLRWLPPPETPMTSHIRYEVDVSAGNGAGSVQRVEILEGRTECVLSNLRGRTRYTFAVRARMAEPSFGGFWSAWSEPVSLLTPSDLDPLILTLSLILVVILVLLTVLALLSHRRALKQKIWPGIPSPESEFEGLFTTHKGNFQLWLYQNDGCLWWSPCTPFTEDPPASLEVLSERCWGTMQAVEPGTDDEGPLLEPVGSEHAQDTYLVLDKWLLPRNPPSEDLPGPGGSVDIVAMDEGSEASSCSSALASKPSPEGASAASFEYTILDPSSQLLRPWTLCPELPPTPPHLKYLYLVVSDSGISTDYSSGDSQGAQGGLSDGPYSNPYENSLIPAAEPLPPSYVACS

[4] = serum; cited from earlier work
[5] = target: T1, EPO receptor; settings: cited from earlier work

Substance | time to peak serum levels ([1]; after subcutaneous administration) | circulating half-life ([1]; intravenously administered, patients with CRF) | time detectable levels of plasma erythropoietin are maintained ([1]; within the therapeutic dose range) | blood triglyceride, total cholesterol and LDL levels [2] | insulin resistance [2] | activity, fold less than HuEPO [3] | ex-vivo half-life [4] | competition with 125I-labeled EPO for binding to the EPO receptor [5]
Erythropoietin: glycoprotein hormone of 165 amino acids and four carbohydrate chains, primary regulator of erythropoiesis | 5 to 24 h | 3 to 4 h | at least 24 hours | concomitant improvement | improve insulin resistance | – | – | –
GGTYSCHFGPLTWVCKPQGG [EMP-1] | – | – | – | – | – | 10,000 to 100,000 fold | 8 h | competes
